± gives the standard deviation of the averaged measurements.
Assays:
Saccharomyces cerevisiae [1] = test: protein stability index of tFT-peptide fusion (C-terminal peptide) (PSI (0-1 scale)); higher = more stable (slower turnover); conditions: genetic background: wild type; temperature: 30 C
Saccharomyces cerevisiae [2] = test: as above
Experimental: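 MPS profiling in S. cerevisiae of the tFT-X12 degron library: putative degron peptides plus stable controls, 12 aa, fused to the C-terminus of a sfGFP-mCherry timer. Cells are FACS-sorted into 8 mCherry/sfGFP bins and deep-sequenced. PSI runs from 0 (unstable) to 1 (stable). Backgrounds are wild type, das1Δ and doa10Δ at 30 °C, and wild type, das1Δ, cdc34-1 and cdc53-1 at 37 °C; 2-3 technical replicates each.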

[3] = genetic background: cdc34-1, temperature: 37 C
[4] = genetic background: cdc53-1, temperature: 37 C
[5] = genetic background: das1 deletion, temperature: 30 C
[6] = genetic background: das1 deletion, temperature: 37 C
[7] = genetic background: doa10 deletion, temperature: 30 C
[8] = genetic background: wild type, temperature: 30 C
[9] = genetic background: wild type, temperature: 37 C
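Also: PSI is a weighted mean of sequencing reads over stability bins, variants kept only with over 10 reads, mCherry proximal and sfGFP distal, peptide attached via GGGS linker.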

Row | Sequence | protein stability index (Saccharomyces cerevisiae [1]) | protein stability index (Saccharomyces cerevisiae [2]; [3]) | protein stability index (Saccharomyces cerevisiae [2]; [4]) | protein stability index (Saccharomyces cerevisiae [2]; [5]) | protein stability index (Saccharomyces cerevisiae [2]; [6]) | protein stability index (Saccharomyces cerevisiae [2]; [7]) | protein stability index (Saccharomyces cerevisiae [2]; [8]) | protein stability index (Saccharomyces cerevisiae [2]; [9])
1 | GTMGWYSISRRL | 0.519 ± 0.078 | 0.692 ± 0.052 | 0.754 ± 0.025 | 0.681 ± 0.013 | 0.746 ± 0.012 | 0.6585 ± 0.004 | 0.646 ± 0.022 | 0.729 ± 0.0091
2 | FVIVSSCIGYAL | 0.499 ± 0.015 | 0.603 ± 0.039 | 0.641 ± 0.036 | 0.451 ± 0.028 | 0.584 ± 0.0076 | 0.4365 ± 0.0039 | 0.46 ± 0.025 | 0.561 ± 0.032
3 | LSTPPLLPTPPS | 0.7113 ± 0.0049 | 0.672 ± 0.029 | 0.7296 ± 0.0032 | 0.664 ± 0.012 | 0.7182 ± 0.0062 | 0.672 ± 0.029 | 0.669 ± 0.014 | 0.6988 ± 0.0048
4 | LLLVCYSTFIVA | 0.313 ± 0.026 | 0.287 ± 0.057 | 0.359 ± 0.045 | 0.254 ± 0.04 | 0.3813 ± 0.0031 | 0.251 ± 0.011 | 0.28 ± 0.014 | 0.364 ± 0.0041
5 | FGFFRLVIVCFR | 0.31 ± 0.16 | 0.135 ± 0.046 | 0.19 ± 0.021 | 0.175 ± 0.032 | 0.313 ± 0.0089 | 0.176 ± 0.017 | 0.172 ± 0.019 | 0.283 ± 0.013
6 | PPAPTPFPPSPR | 0.593 ± 0.14 | 0.687 ± 0.037 | 0.7216 ± 0.0033 | 0.669 ± 0.034 | 0.741 ± 0.018 | 0.697 ± 0.026 | 0.672 ± 0.024 | 0.728 ± 0.01
7 | VSVVLKTQRVVC | 0.4809 ± 0.0012 | 0.595 ± 0.026 | 0.607 ± 0.008 | 0.432 ± 0.039 | 0.60289 ± 0.00044 | 0.3 ± 0.0041 | 0.346 ± 0.033 | 0.535 ± 0.01
8 | WSCVGLWGRFCC | 0.448 ± 0.036 | 0.663 ± 0.033 | 0.748 ± 0.018 | 0.637 ± 0.011 | 0.76 ± 0.013 | 0.267 ± 0.011 | 0.299 ± 0.0093 | 0.57 ± 0.0094
9 | FGVSLFLPLSVV | 0.407 ± 0.017 | 0.4023 ± 0.0021 | 0.415 ± 0.006 | 0.32 ± 0.026 | 0.46 ± 0.011 | 0.281 ± 0.0048 | 0.308 ± 0.023 | 0.4184 ± 0.0035
